From paper PMC3462613
Like-named read-outs stand apart in the source and are kept apart here.

Experiments:
Test in all cases: fluorescence polarisation
[1] = biological target: FITC-labelled SMN^26–51, wild type (human) (UniProt Q16637)
[2] = biological target: FITC-labelled SMN^26–51, wild type (human) (UniProt Q16637); remark: listed apart in the source
[3] = biological target: FITC-labelled SMN^26–51, wild type (human) (UniProt Q16637); remark: listed apart in the source
[4] = biological target: FITC-labelled SMN^26–51 D44V (human) (UniProt Q16637)
[5] = biological target: FITC-labelled SMN^26–51, wild type (human) (UniProt Q16637); remark: listed apart in the source
[6] = biological target: FITC-labelled SMN^26–51 D44V (human) (UniProt Q16637); remark: listed apart in the source
[7] = biological target: FITC-labelled SMN^26–51, wild type (human) (UniProt Q16637); remark: listed apart in the source
[8] = biological target: FITC-labelled SMN^26–51 Y43A (human) (UniProt Q16637)
[9] = biological target: FITC-labelled SMN^26–51 W34A (human) (UniProt Q16637)
[10] = biological target: FITC-labelled SMN^26–51 L39A (human) (UniProt Q16637)
[11] = biological target: FITC-labelled SMN^26–51 D35A (human) (UniProt Q16637)
[12] = biological target: FITC-labelled SMN^26–51 D44V (human) (UniProt Q16637); remark: listed apart in the source
[13] = biological target: FITC-labelled SMN^26–51 D44A (human) (UniProt Q16637)
[14] = biological target: FITC-labelled SMN^26–51 K41A (human) (UniProt Q16637)
[15] = biological target: SMN^26–51 peptide containing phosphoserine at positions 28 and 31 (human) (UniProt Q16637)
[16] = biological target: FITC-labelled SMN^26–51 A46N (human) (UniProt Q16637)
[17] = biological target: FITC-labelled SMN^26–51 D36A (human) (UniProt Q16637)
[18] = biological target: FITC-labelled SMN^26–51, wild type (human) (UniProt Q16637); remark: listed apart in the source

Row | Substance | Kd [1] [nM] | Kd [2] [nM] | Kd [3] [nM] | Kd [4] [nM] | Kd [5] [nM] | Kd [6] [nM] | Kd [7] [nM] | Kd [8] [nM] | Kd [9] [nM] | Kd [10] [nM] | Kd [11] [nM] | Kd [12] [nM] | Kd [13] [nM] | Kd [14] [nM] | Kd [15] [nM] | Kd [16] [nM] | Kd [17] [nM] | Kd [18] [nM]
1 | Gemin2 (12–280) (natural protein) | 7 |  |  |  |  |  |  |  |  |  |  |  |  |  |  |  |  | 
2 | Gemin2^95–280 (domain or fragment) | 3.3 | 5.2 | 180 | 1.5 | 2.3 | 1800 | 2.2 | 510 | 16 | 74 | 6.8 | 8.4 | 5.3 | 4.8 | 4.2 | 42 | 8.3 | 2.4
